Assay results published in patent publication US9988424 (DUKE UNIVERSITY, dated 2018).
Changes are numbered by the printed parent chain. Read-outs that look alike come from different tables or passages of the source.

Experiments:
Test in all cases: ELISA, OD405 at 10 ug/ml
[1] = molecular target: T1, C.1086 gp140
T1 construct: also called C.1086gp140C

[2] = molecular target: AE.con gp140CF
[3] = molecular target: T2, A.9004SS V1/V2 tags
T2 V1V2 tags construct: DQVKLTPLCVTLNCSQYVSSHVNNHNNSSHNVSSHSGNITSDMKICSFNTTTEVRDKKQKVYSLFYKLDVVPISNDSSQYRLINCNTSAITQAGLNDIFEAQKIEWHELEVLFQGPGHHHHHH

[4] = molecular target: G.con gp140CF
[5] = molecular target: T3, AE.97CNG2XF gp140CF (HIV-1)
T3 construct: also called E.97CNGX2F gp140CF

[6] = molecular target: B.9021 gp140C (HIV-1)
[7] = molecular target: T4, gp70 B.CaseA2 V1/V2 (HIV-1 V1V2 on murine leukemia virus gp70)
T4 construct: also called B.gp70CaseA2 V1/V2; gp70 B.CaseAV1V2
T4 chain: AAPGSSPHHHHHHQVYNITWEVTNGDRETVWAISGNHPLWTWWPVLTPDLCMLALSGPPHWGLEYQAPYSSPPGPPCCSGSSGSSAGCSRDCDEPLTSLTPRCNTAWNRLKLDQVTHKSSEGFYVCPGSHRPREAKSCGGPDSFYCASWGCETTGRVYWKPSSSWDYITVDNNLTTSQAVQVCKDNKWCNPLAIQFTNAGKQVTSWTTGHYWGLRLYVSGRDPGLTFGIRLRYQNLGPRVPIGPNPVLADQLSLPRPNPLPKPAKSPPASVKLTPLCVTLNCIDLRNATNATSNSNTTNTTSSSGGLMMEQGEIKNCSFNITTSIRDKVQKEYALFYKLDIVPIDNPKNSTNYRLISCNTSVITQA

[8] = molecular target: T5, gp70 C.1086 V1/V2 (HIV-1 V1V2 on murine leukemia virus gp70)
T5 construct: also called C.gp70 1086C V1V2; C.1086gp70V1V2
T5 chain: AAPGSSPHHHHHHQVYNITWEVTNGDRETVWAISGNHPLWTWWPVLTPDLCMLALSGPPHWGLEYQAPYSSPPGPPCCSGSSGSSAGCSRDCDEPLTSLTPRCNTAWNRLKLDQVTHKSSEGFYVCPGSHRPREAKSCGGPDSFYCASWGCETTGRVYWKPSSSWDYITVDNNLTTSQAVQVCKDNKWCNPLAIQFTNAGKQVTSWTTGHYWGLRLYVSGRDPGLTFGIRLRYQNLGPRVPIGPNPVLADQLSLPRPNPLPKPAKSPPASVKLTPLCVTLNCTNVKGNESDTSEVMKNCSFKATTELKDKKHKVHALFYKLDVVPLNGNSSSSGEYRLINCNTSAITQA

[9] = molecular target: B.con gp140CF
[10] = molecular target: T6, B.HXB/BAL gp140CFI (HIV-1, UniProt P04578 33-680)
T6 construct: also called B.HxB/Ba gp140 CFI

[11] = molecular target: Con 6 gp120
[12] = molecular target: B.040 gp140C
[13] = molecular target: T7, SIV CPZ US-1 gp140CF (SIVcpz)
T7 construct: also called US-1 SIVCPZ gp140CF
T7 chain: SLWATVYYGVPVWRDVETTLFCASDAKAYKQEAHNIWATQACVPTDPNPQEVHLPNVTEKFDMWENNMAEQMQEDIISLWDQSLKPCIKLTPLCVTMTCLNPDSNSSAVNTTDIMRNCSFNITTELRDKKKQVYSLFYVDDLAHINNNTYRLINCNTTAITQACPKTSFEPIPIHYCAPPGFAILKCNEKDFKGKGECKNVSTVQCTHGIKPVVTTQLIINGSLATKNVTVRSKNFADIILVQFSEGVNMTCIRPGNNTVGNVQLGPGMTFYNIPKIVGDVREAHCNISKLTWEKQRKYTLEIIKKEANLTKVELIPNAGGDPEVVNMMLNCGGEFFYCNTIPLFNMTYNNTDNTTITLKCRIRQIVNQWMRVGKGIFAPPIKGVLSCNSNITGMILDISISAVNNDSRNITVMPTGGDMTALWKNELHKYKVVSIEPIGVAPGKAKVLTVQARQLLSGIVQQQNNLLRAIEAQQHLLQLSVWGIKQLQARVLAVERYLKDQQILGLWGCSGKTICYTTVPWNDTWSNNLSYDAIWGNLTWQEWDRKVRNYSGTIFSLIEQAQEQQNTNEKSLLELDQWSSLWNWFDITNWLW

[14] = molecular target: T8, B.62357 gp140C
T8 construct: also called B.62357 140C

[15] = molecular target: C.CAP206 gp140CF.12 (HIV-1)
[16] = molecular target: T1, C.1086 gp140; remark: listed apart in the source
[17] = molecular target: AE.con gp140CF; remark: listed apart in the source
[18] = molecular target: T2, A.9004SS V1/V2 tags
[19] = molecular target: G.con gp140CF; remark: listed apart in the source
[20] = molecular target: T3, AE.97CNG2XF gp140CF; remark: listed apart in the source
[21] = molecular target: T4, gp70 B.CaseA2 V1/V2
[22] = molecular target: T5, gp70 C.1086 V1/V2
[23] = molecular target: B.con gp140CF; remark: listed apart in the source
[24] = molecular target: T6, B.HXB/BAL gp140CFI; remark: listed apart in the source
[25] = molecular target: Con 6 gp120; remark: listed apart in the source
[26] = molecular target: B.040 gp140C; remark: listed apart in the source
[27] = molecular target: T7, SIV CPZ US-1 gp140CF
[28] = molecular target: T8, B.62357 gp140C; remark: listed apart in the source
[29] = molecular target: C.CAP206 gp140CF.12 (HIV-1); remark: listed apart in the source

Measured: binding result

B1: CH01_UA1 (antibody, V domains shown)
VH: EVQLVESGGGVVRPGGSLRLSCAASGFTFDDYGMSWVRQAPGKGLEWVSGINWNGGSTGYADSVKGRFTISRDNAKNSLYLQMNSLRAEDTALYYCARGTDYTIDDQGIRYQGSGTFWYFDLWGRGTLVTVSS
VL: not shown
no binding (tested: 10 ug/ml): [1] | [2] | [3] | [4] | [5] | [6] | [7] | [8] | [9] | [10] | [11] | [12] | [13] | [14] | [15]

B2: CH01_UA2 (antibody, V domains shown)
VH: B1 VH with R110L
VL: not shown
no binding (tested: 10 ug/ml): [16] | [17] | [18] | [19] | [20] | [21] | [22] | [23] | [24] | [25] | [26] | [27] | [28] | [29]
